Assay results as given in the supplement of paper PMC10126150.
± gives the standard deviation of the averaged measurements.

test system: ATP; assay: switch fluorescence ratio, 500 uM ATP over buffer (Cy3 cluster intensity, sum of 5 cycles each) (fold (ratio)); higher = stronger signal-on switching upon ATP binding; sequences stand for … in TCGTCGGCAGCGTCAGATGTGTATAAGAGACAGTTTTTTTTTTTTTTTTTTTTTTTTT…TC; settings: aptamer strand: ATP DNA aptamer (quencher-CACCTGGGGGAGTATTGCGGAGGAAGG + anchor), 100 nM annealed; ATP concentration: 500 uM
Summary of the method: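 Imaging in selection buffer was followed by imaging after 15 min with 500 uM ATP at 22 °C, for Cy3-labelled switching-strand clusters annealed to 100 nM quencher-labelled ATP aptamer on a modified Illumina MiSeq flow-cell. Five of these buffer/ATP cycles ran, separated by NaOH stripping and re-annealing. The fluorescence ratio per cluster is summed target-cycle over summed buffer-cycle Cy3 intensity, averaged per switch-domain sequence; clusters outside 100-1000 RFU were removed.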
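Note: ATP exposure 15 min at 22 °C before imaging.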

In order of rising switch fluorescence ratio:
1. AAGAAATTGG  0.9446 ± 0.0027
2. GCGTTGGGCT  0.949 ± 0.016
3. GGGTCAGTGT  0.952 ± 0.018
4. GGGTTGTGCT  0.953 ± 0.015
5. AGGGGAAGTC  0.953 ± 0.015
6. TGGTGCATGC  0.957 ± 0.019
7. ATAGATAGTG  0.959 ± 0.015
8. GTTTTATCAG  0.961 ± 0.039
9. CGTAGGAGTC  0.963 ± 0.15
10. CGGCACCCGT  0.9653 ± 0.0078
11. TGTCGAGGGC  0.965 ± 0.021
12. AATATGCAGG  0.9657 ± 0.0034
13. ATTGGGGCTG  0.9677 ± 0.006
14. AAAGTGATGT  0.969 ± 0.02
15. ATAATGGGTA  0.97 ± 0.025
16. GGCTTAGAGT  0.971 ± 0.011
17. CGTGTCGCTG  0.971 ± 0.024
18. GGGTTGAAGA  0.971 ± 0.04
19. TAGGCGTTGG  0.972 ± 0.033
20. GAGTCGGCCT  0.975 ± 0.012
21. AATGTCTAGA  0.975 ± 0.023
22. TGGGGTGCGG  0.975 ± 0.026
23. TTATCTTTGT  0.9758 ± 0.007
24. CTTTTAATTG  0.977 ± 0.037
25. CAGCATTGGG  0.978 ± 0.038
26. AAAACTTTAT  0.978 ± 0.013
27. GAGAATTATA  0.978 ± 0.019
28. CTAAATGAGC  0.979 ± 0.02
29. CATATTCTTT  0.979 ± 0.016
30. TCGAATGGGC  0.98 ± 0.037
31. CACGAGGGAG  0.982 ± 0.022
32. TTTGTAAAAA  0.9829 ± 0.0094
33. GGGGAGAGGG  0.984 ± 0.029
34. TGTTCTTGGG  0.985 ± 0.026
35. GGGGTGTAGT  0.9854 ± 0.0053
36. TTTATGTACG  0.985 ± 0.054
37. GGAAAATACA  0.985 ± 0.025
38. TGTGGTAAGG  0.98472 ± 0.0006
39. GGTATCTGTT  0.986 ± 0.016
40. TAAATGGTTG  0.9863 ± 0.0094
41. GTTTGTTTAC  0.987 ± 0.014
42. GATTGAGTTT  0.9866 ± 0.0089
43. TAAATGTTGT  0.9869 ± 0.0055
44. CTTGGATGTT  0.987 ± 0.024
45. ATGTGGCCTG  0.988 ± 0.056
46. AATTTAGGGG  0.989 ± 0.03
47. AGTAAATTCT  0.9887 ± 0.0015
48. GTTATGGGTA  0.989 ± 0.025
49. GATGTTGGGA  0.989 ± 0.016
50. AAGAGCGGGG  0.989 ± 0.043
51. AGGGGAGATG  0.991 ± 0.048
52. TAGGGTTGTA  0.991 ± 0.04
53. GTGTCATTTT  0.991 ± 0.025
54. CGTGTTTTTT  0.991 ± 0.029
55. TTTAGAGTAT  0.992 ± 0.018
56. GAAGGCGGGG  0.9933 ± 0.0054
57. CGTTGGGATC  0.99281 ± 0.00021
58. AGGCTAGGGC  0.993 ± 0.022
59. GTTACATGTT  0.993 ± 0.024
60. CAGCGTCTTT  0.994 ± 0.012
61. TCCAGTATTA  0.9945 ± 0.0042
62. ATGCTTTTTT  0.994 ± 0.017
63. CGGTCGGGGT  0.995 ± 0.045
64. GGACTCCTAG  0.995 ± 0.028
65. TGATTGGGAA  0.995 ± 0.021
66. AGCCGGGGTA  0.995 ± 0.025
67. TCTGTAGGGG  0.995 ± 0.013
68. GGGCTCAACT  0.9946 ± 0.0053
69. GAACGGGGAA  0.996 ± 0.015
70. AGGTAAAGGG  0.996 ± 0.04
71. TATCTTGGGC  0.996 ± 0.083
72. TTTAGAGTTT  0.997 ± 0.032
73. ACAGCATGCC  0.997 ± 0.013
74. CGGGGGAGGA  0.997 ± 0.011
75. ATTGGAAGTT  0.997 ± 0.014
76. ATAGAGGAGT  0.998 ± 0.032
77. TCAAGGTGGG  0.998 ± 0.021
78. TAGGAGATTT  0.998 ± 0.03
79. TTTTTGTTCG  0.998 ± 0.015
80. ATTGCTTTGG  0.9976 ± 0.0015
81. CAAGCCAGTT  0.9985 ± 0.0043
82. CTAGTCACCG  0.999 ± 0.019
83. AAGGAAATGT  1 ± 0.014
84. TGAGGGATTC  1 ± 0.047
85. ATAAGTGCAT  1 ± 0.016
86. AGCGGTCCGG  1 ± 0.058
87. AGGGGGGATT  1 ± 0.019
88. ATGCATTGTT  1 ± 0.027
89. CAAGGACGAT  1.004 ± 0.0015
90. AGCTGTTTAG  1 ± 0.014
91. CGCTGAGGTA  1 ± 0.03
92. AGATTTTTAA  1.004 ± 0.0097
93. ACATCAGATC  1 ± 0.011
94. GCGTTTTCGA  1 ± 0.021
95. AGGAGACATA  1 ± 0.021
96. TCGTTGTGAG  1.004 ± 0.0089
97. TGGTAGATGG  1 ± 0.022
98. TCAAGGTATT  1 ± 0.034
99. CCTTATAAA  1 ± 0.018
100. AACTCTCGGG  1 ± 0.014
101. GGGTGGGTAT  1 ± 0.027
102. TTGCAAAAGC  1 ± 0.065
103. AATGTTTGCT  1 ± 0.018
104. AATGGGCACA  1 ± 0.042
105. GATCGGGGAA  1.01 ± 0.02
106. GCGATTTGGC  1.01 ± 0.056
107. ATGTGGGTTA  1.01 ± 0.022
108. TAGGGTAGTG  1.01 ± 0.021
109. AAGGCATGAT  1.0128 ± 0.00018
110. GAGGGATTCG  1.01 ± 0.014
111. AGCATGGGGG  1.01 ± 0.023
112. TTTTGGGGGC  1.01 ± 0.023
113. GATTTAGTAC  1.01 ± 0.067
114. TTTCTCGATG  1.011 ± 0.0072
115. ATATATTTCG  1.01 ± 0.017
116. AAACAAAAGT  1.01 ± 0.037
117. CAGCTTGGA  1.01 ± 0.029
118. CGGTGCGGGA  1.01 ± 0.011
119. ATGAGGGGTG  1.013 ± 0.0076
120. AGCAAGGGCA  1.0103 ± 6.2e-05
121. TTTATTTTGC  1.01 ± 0.036
122. AAGGGGAATC  1.01 ± 0.024
123. TAGAAGTATT  1.01 ± 0.027
124. TTCCAATGTG  1.01 ± 0.029
125. AGGGAAAAAA  1.01 ± 0.043
126. CATTATCTGG  1.01 ± 0.072
127. ATCGTTAAAC  1.01 ± 0.0099
128. AAATATTTCG  1.02 ± 0.03
129. CCATTGATGT  1.02 ± 0.023
130. CGCTTGAGTC  1.025 ± 0.0062
131. TCCCGTTTTT  1.02 ± 0.065
132. TGGGAAGACC  1.02 ± 0.025
133. TTAAAAACAT  1.024 ± 0.0014
134. AACACCTAGG  1.02 ± 0.028
135. TCAGTGTGTT  1.02 ± 0.038
136. GAGGGGGTCG  1.02 ± 0.079
137. TATTTATGCG  1.021 ± 0.0091
138. TAAAGGCTGG  1.015 ± 0.0052
139. GTCACGGGGG  1.026 ± 0.0027
140. GAGGAGGCGG  1.03 ± 0.014
141. TCATACTGTG  1.03 ± 0.014
142. GTATGCTTTT  1.034 ± 0.0043
143. GCAACCCGGT  1.028 ± 0.0037
144. GCGGTAATCG  1.03 ± 0.032
145. ACTCATTTC  1.03 ± 0.047
146. AAAATGGACA  1.03 ± 0.019
147. CGCGTTAGGG  1.03 ± 0.011
148. CTAAATCGGC  1.03 ± 0.035
149. CCTTTGAGAT  1.03 ± 0.022
150. GTGTATGCAA  1.03 ± 0.029
151. GCTCGTACGA  1.03 ± 0.027
152. ACAGCGGATG  1.028 ± 0.0095
153. GAGTACTTAG  1.03 ± 0.011
154. ACTTAATAAC  1.03 ± 0.013
155. ACGTGATTCA  1.03 ± 0.074
156. AGTTTACTTT  1.03 ± 0.017
157. AGCCTAGGAT  1.04 ± 0.0021
158. TACTTTTGAC  1.04 ± 0.011
159. AGGCGGTGGG  1.044 ± 0.0059
160. GTGAGCCGTT  1.04 ± 0.025
161. TCTATGGGAC  1.05 ± 0.013
162. TGAATGGTCG  1.05 ± 0.036
163. AAGGCGGCAC  1.05 ± 0.02
164. CTAATTGCAA  1.05 ± 0.066
165. GGTTTTGCTG  1.05 ± 0.053
166. TATTTTCACT  1.05 ± 0.11
167. TTTACCGGAT  1.05 ± 0.024
168. GCGCGCACAC  1.05 ± 0.019
169. TCATGCACTG  1.05 ± 0.035
170. TCGCGATAAA  1.06 ± 0.017
171. ACCGTATCTT  1.06 ± 0.053
172. AATTTACGGA  1.06 ± 0.037
173. GCAAGGGGAT  1.06 ± 0.11
174. GGGAAAATTC  1.06 ± 0.089
175. CTTTGGAATA  1.07 ± 0.041
176. ACCTGGGGGA  1.07 ± 0.11
177. GACATATACA  1.07 ± 0.025
178. ATCTGCCTGC  1.074 ± 0.009
179. ACTGCTAATT  1.08 ± 0.039
180. CTGGGGTACT  1.08 ± 0.056
181. TTCCGTCTAT  1.08 ± 0.086
182. GGGAGGGGAA  1.1 ± 0.15
183. AATCGAGTCC  1.107 ± 0.011
184. GACCCTATAA  1.11 ± 0.066
185. CCGGTACGTC  1.12 ± 0.044
186. TACAGGGTCG  1.13 ± 0.049
187. CCGATTTGGC  1.14 ± 0.044
188. CCCCGAGGAT  1.14 ± 0.022
189. ATCGGAATCC  1.19 ± 0.094
190. ACTTACAGCT  1.19 ± 0.017
191. ATGCGCAAGG  1.25 ± 0.033
192. TTACACGTAA  1.31 ± 0.019
193. AAACCAAACT  1.34 ± 0.31
194. TAAAACGCGT  1.68 ± 0.94
195. ACTAGGCAAT  1.96 ± 0.27
196. CCGGGAGCGC  1.98 ± 0.83
197. GGGGAAACCT  2.21 ± 0.77
198. CGGAGTAAGA  2.53 ± 0.15
199. ATTCAGGTGT  2.66 ± 0.29
200. AAACGAGAAC  3.04 ± 2.8
